Measurements reported in PMC6925320.

The substances below were run against trypsin-activated CDTb (cell-binding component of the C. difficile transferase toxin), oligomer (Clostridioides difficile strain R20291) (UniProt Q9KH41) (assay: cryo-EM structure).

“trypsin-activated CDTb (cell-binding component of the C. difficile transferase toxin), oligomer (from UniProt Q9KH41 43-876) (natural protein)” was tested, and the stoichiometry N was 7.

The substances below were run against lipolysis-stimulated lipoprotein receptor (LSR) on Caco-2 cells (human (endogenous in Caco-2)) (UniProt Q86X29) (assay: flow cytometry on cells).
UniProt Q86X29, sequence (Q86X29 whole entry): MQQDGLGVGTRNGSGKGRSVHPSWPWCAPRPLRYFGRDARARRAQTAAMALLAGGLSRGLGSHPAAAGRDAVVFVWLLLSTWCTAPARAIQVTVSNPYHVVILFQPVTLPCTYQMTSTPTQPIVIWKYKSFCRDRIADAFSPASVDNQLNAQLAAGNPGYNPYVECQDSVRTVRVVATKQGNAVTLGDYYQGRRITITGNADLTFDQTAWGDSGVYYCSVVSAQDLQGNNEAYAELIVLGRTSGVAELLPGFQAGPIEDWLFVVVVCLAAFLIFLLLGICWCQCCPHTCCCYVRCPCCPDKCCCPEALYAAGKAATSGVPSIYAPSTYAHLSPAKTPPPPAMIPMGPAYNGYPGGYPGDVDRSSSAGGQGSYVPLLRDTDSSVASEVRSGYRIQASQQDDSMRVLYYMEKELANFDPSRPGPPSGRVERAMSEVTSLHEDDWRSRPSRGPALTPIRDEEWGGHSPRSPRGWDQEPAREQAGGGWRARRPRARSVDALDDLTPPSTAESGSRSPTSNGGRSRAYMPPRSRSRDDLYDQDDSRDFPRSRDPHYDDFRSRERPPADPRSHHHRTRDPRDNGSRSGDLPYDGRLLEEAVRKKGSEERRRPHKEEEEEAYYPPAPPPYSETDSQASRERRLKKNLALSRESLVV

“Alexa-647-labeled CDTb I852E (from UniProt Q9KH41 43-876) (natural protein)” and “Alexa-647-labeled CDTb F774D (from UniProt Q9KH41 43-876) (natural protein)” cannot be ordered by Kd: 75 nM for the first, over 50 nM for the second.

Going from “Alexa-647-labeled CDTb T854E (from UniProt Q9KH41 43-876) (natural protein)” to “Alexa-647-labeled CDTb, wild type (from UniProt Q9KH41 43-876) (natural protein)”, the Kd falls from 38 nM to 4.5 nM (8.4-fold).

“Alexa-647-labeled CDTb Y812D (from UniProt Q9KH41 43-876) (natural protein)” showed a Kd of 3.9 nM.
